Patent US20200079850A1 (SUTRO BIOPHARMA, published 2020)
Substitutions are numbered along the chain they refer to. One block for each binder: values may come before it.

How the values were obtained:
[1] = biological target: T1, human LAG3 expressed on the cell surface (CHO-LAG3, 293T-LAG3 cells) (human, UniProt P18627 23-525); assay: flow cytometry, 293T cells expressing human LAG3
T1 construct: Stably transfected CHO or HEK293T cells; also called Human LAG3 (CHO); Human LAG3 (293T)
T1 sequence: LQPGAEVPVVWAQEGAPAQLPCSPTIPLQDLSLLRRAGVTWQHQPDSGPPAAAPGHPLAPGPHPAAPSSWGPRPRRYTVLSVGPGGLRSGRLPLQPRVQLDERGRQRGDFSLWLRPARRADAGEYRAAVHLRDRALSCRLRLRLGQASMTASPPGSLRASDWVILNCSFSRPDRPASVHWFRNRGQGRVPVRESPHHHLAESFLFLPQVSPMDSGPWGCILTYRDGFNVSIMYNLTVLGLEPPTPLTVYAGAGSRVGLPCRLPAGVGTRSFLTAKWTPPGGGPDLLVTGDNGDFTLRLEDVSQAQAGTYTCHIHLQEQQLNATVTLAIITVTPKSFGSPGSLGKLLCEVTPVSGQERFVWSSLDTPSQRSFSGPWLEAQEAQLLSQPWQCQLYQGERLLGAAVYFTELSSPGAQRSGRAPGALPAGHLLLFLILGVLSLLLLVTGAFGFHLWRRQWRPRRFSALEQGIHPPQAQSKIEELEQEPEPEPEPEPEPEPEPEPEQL
Procedure: LAG3 antibody variants were tested in a fluorescence-activated cell sorting (FACS) cell-binding assay. Chinese Hamster Ovary (CHO) cells or HEK293T cells stably expressing the human target molecule LAG3 on the cell surface (CHO-LAG3, 293T-LAG3) were used to screen for cell binders by flow cytometry. Parental CHO or 293T cells were used as a negative control to determine background-binding levels. Cells were cultured in RPMI with 10% FCS Penicillin/Streptomycin (or Pen/Strep) and glutamine (or Gln) and split every 3-4 days at 10⁵ cells/ml.
A mix of parental CHO cells and CHO-LAG3 cells (or 293T and 293T-LAG3 cells) was prepared as follows: Parental CHO cells were washed 2× in PBS then incubated in PBS containing 1 nM CellTrace™ Oregon Green488® (Life Technologies) at 37° C. for 30 minutes. […] Parental CHO cells and CHO-LAG3 cells were then mixed to obtain a 1:1 cell suspension and seeded at 100 μl per well on 96 well polypropylene plates. Plates were spun at 1500 rpm for 5 minutes and cell pellets were suspended in 50 μl FACS buffer containing 6-12 point dilutions of anti-LAG3 variants starting from concentrations of ˜100-200 nM antibody, dispensed using BioMekFX (Beckman Coulter). Cells were then incubated on ice for 1 hr, washed with FACS buffer and incubated for 1 hr on ice with 50 μl FACS buffer containing 2.5 μg/ml R-Phycoerythrin-conjugated Goat Anti-Human IgG (Jackson ImmunoResearch) or AF647-conjugated Goat Anti-mouse IgG (Life Technologies) dispensed using BioMekFX (Beckman Coulter). Cells were then washed 2× with FACS buffer and fixed for 10 minutes in 200 μl PBS with 2% PFA prior to fluorescence detection. Samples were acquired using a Beckton Dickinson LSRII FACS. Mean Fluorescence Intensity of LAG3 antibody binding was analyzed using Tree Star, Inc. FlowJo® software.

[2] = biological target: T2, recombinant human LAG3 protein (rhLAG3), HIS-tagged (ACRO) or biotinylated (R&D Cat #2319-C3) (human, UniProt P18627 23-450, biotinylated in part of the assays); assay: flow cytometry competition, rhLAG3 binding to Daudi cells; competitor MHCII
T2 sequence: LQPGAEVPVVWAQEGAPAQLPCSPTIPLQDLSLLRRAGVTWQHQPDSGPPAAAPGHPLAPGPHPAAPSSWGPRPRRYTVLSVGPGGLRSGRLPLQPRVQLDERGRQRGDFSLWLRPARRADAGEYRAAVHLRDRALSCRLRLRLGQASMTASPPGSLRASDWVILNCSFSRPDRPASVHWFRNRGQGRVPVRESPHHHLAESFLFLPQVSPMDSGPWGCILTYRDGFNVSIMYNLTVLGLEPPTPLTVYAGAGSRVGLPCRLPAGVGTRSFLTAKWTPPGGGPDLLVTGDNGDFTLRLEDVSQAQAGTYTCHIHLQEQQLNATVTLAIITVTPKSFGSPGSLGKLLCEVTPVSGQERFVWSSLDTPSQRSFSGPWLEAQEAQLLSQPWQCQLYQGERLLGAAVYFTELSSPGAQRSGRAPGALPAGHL
Procedure: DAUDI cells express high levels of Major Histocompatibility Class II (MHCII) molecules, a natural ligand for LAG3, on the cell surface. DAUDI cells were used to screen for antibodies that inhibit binding of HIS-tagged (ACRO) or biotinylated recombinant human LAG3 protein (rhLAG3) to MHCII expressed on the cell surface.
DAUDI cells were cultured in RPMI w/10% FCS Pen/Strep and Gln and split every 3-4 days at 10^5 cells/ml. Cells were washed 2× with FACS buffer (PBS w/2% FCS), […] at a final concentration of 1×10⁶ cells/ml and seeded at 100 μl per well on 96 well polypropylene plates. Plates were spun at 1500 rpm for 5 minutes and cell pellets were suspended in 50 μl FACS buffer containing 8 point 1:3 dilutions (2× concentrated) of anti-LAG3 antibody variants, starting from high concentration of −600 nM. 50 μl FACS buffer containing 10-20 μg/ml of the HIS-tagged rhLAG3 protein or 40 μg/ml of the biotinylated rhLAG3 protein were then added to the cells. Cell were then incubated in ice for 1 hr, washed with FACS buffer and incubated for 1 hr in ice with 50 μl FACS buffer containing 2 μg/ml R-Phycoerythrin-conjugated Streptavidin (eBiosciences) or 1 μg/ml R-Phycoerythrin-conjugated anti-HIS IgG (Abcam). Cell were washed 2× with FACS buffer and fixed for 10 minutes in 200 μl PBS w/2% PFA prior to acquisition.

[3] = biological target: T3, human LAG3-Fc (R&D Systems #2319-L3) (human, UniProt P18627 23-450); assay: SPR (Biacore), antibody captured by anti-Flag, LAG3-Fc as analyte, 25 C
T3 construct: Bought protein; also called Human LAG3 (Biacore)
T3 sequence: T2 sequence
Procedure: Anti-Flag M2 IgG (Sigma-Aldrich # F9291) was immobilized onto a CMS chip (GE Life Sciences) using amine coupling chemistry (from Amine Coupling Kit, GE Life Sciences). The immobilization steps were carried out at a flow rate of 25 μL/min in 1×HBS-EP+ buffer (GE Life Sciences; 10×Stock diluted before use). The sensor surfaces were activated for 7 min with a mixture of NHS (0.05 M) and EDC (0.2 M). The Anti-Flag M2 IgG was injected over all 4 flow cells at a concentration of 25 μg/mL in 10 mM sodium acetate, pH 4.5, for 7 min. Ethanolamine (1 M, pH 8.5) was injected for 7 min to block any remaining activated groups. An average of 12,000 response units (RU) of capture antibody was immobilized on each flow cell.
Off-rate and kinetic binding experiments were performed at 25° C. using 1×HBS-EP+buffer. Test and control antibodies were injected over the Anti-Flag surface at concentrations of 5-10 μg/mL for 12 seconds at a flow rate of 10 μL/min on flow cells 2, 3 and 4, followed by a buffer wash for 30 seconds at the same flow rate. Kinetic characterization of antibody samples was carried out with a single concentration of antigen (for off-rate ranking) or a dilution series of antigen (for kinetic characterization) and 1 injection of 0 nM antigen. After capturing ligand (antibody) on the anti-Flag surface, the analyte (human LAG3-Fc, R&D Systems #2319-L3; or cynomolgus LAG3-Fc, accession # NC 022282.1) was bound at 50, 25, 12.5, 6.25, and 0 nM for 180 seconds, followed by a 600 second dissociation phase at a flow rate of 50 μl/min Between each ligand capture and analyte binding cycle, regeneration was carried out using 2 injections of 10 mM glycine pH 2.0 for 30 seconds at 30 μL/min, followed by a 30 second buffer wash step.
The data were fit with the Biacore T200 Evaluation software, using a 1:1 Langmuir binding model. KD (affinity, nM) was determined as a ratio of the kinetic rate constants calculated from the fits of the association and dissociation phases.

- Kd [1]: 39.4 nM
- IC50 [2]: 28.6 nM
- Kd [3]: 21.3 nM
- koff [3]: 0.0279 s⁻¹
- kon [3]: 1.31e+06 M⁻¹ s⁻¹
B1: SRP1496-B08 (antibody, V domains shown)
VH: EVQLVESGGGLVQPGGSLRLSCAASGFNINDTYIHWVRQAPGKGLEWVGIIDPYDGATDYADSVKGRFTISADTSKNTAYLQMNSLRAEDTAVYYCAREIFGFYWNPFDYWGQGTLVTVSS
VL: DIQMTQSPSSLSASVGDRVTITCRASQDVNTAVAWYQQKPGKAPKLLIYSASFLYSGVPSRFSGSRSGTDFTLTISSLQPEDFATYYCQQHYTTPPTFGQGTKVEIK

- Kd [1]: 40.6 nM
- IC50 [2]: 41.3 nM
- Kd [3]: 18.9 nM
- koff [3]: 0.0234 s⁻¹
- kon [3]: 1.24e+06 M⁻¹ s⁻¹
B2: SRP1496-A03 (antibody, V domains shown)
VH: B1 VH
VL: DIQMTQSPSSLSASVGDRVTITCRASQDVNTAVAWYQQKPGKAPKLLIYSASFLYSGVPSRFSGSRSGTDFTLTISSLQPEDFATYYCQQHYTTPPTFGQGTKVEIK

- Kd [1]: 35 nM
- IC50 [2]: 55.8 nM
- Kd [3]: 15.2 nM
- koff [3]: 0.0196 s⁻¹
- kon [3]: 1.29e+06 M⁻¹ s⁻¹
B3: SRP1496-A04 (antibody, V domains shown)
VH: B1 VH
VL: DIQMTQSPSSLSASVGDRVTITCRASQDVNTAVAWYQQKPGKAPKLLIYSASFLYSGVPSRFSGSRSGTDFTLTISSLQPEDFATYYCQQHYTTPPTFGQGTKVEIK

- IC50 [2]: 4.5 nM
- Kd [3]: 2.46 nM
- koff [3]: 0.0275 s⁻¹
- kon [3]: 1.12e+07 M⁻¹ s⁻¹
B4: SRP1648-B07 (antibody, V domains shown)
VH: B1 VH with N30A, Y33F, A57D, F101L
VL: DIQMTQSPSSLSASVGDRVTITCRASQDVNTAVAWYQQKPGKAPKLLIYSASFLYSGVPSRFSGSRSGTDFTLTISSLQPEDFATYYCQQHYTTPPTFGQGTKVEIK
notes: IgG scaffold with human constant domains

- IC50 [2]: 4.1 nM
- Kd [3]: 2.27 nM
- koff [3]: 0.122 s⁻¹
- kon [3]: 5.35e+07 M⁻¹ s⁻¹
B5: SRP1648-E02 (antibody, V domains shown)
VH: B1 VH with T32N, A57F, D59A, I100S, F101I, W105L
VL: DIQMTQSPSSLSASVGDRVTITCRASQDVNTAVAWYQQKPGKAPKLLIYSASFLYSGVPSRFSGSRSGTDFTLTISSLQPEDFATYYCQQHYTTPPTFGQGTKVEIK

- Kd [1]: 0.74 nM
- IC50 [2]: 1.6 nM
- Kd [3]: 13.5 nM
- koff [3]: 0.00422 s⁻¹
- kon [3]: 312000 M⁻¹ s⁻¹
B6: SRP1627-A11 (scFv, V domains shown)
VH: QVQLVQSGAEVKKPGSSVKVSCKASGFNINDYFMHWVRQAPGQGLEWIARIDPWNGDTEYAPKFQGRVTITADESTSTAYMELSSLRSEDTAVYYCGMSDALDYWGQGTLVTVSS
VL: DVVMTQSPLSLPVTLGQPASISCKSSQSLLDSDGKTYLNWFQQRPGQSPRRLIYLVSKLDSGVPDRFSGSGSGTDFTLKISRVEAEDVGVYYCWHGINFPQTFGQGTKVEIK

- Kd [1]: 0.19 nM
- IC50 [2]: 0.4 nM
- Kd [3]: 14.7 nM
- koff [3]: 0.0152 s⁻¹
- kon [3]: 1.04e+06 M⁻¹ s⁻¹
B7: SRP1627-B01 (scFv, V domains shown)
VH: B6 VH with N30T, Y32L, F33Y, V68A, G97I, M98A, D100E, A101M, L102V
VL: B6 VL with W94S, H95T, G96Y, I97S, N98H

- Kd [1]: 0.97 nM
- IC50 [2]: 1.7 nM
- Kd [3]: 43.3 nM
- koff [3]: 0.071 s⁻¹
- kon [3]: 1.64e+06 M⁻¹ s⁻¹
B8: SRP1627-A02 (scFv, V domains shown)
VH: B6 VH
VL: B6 VL with W94S, I97N, N98P, F99V

- Kd [1]: 78 nM
- Kd [3]: 863 nM
- koff [3]: 0.0023 s⁻¹
- kon [3]: 2670 M⁻¹ s⁻¹
B9: h5G11-2 (scFv, V domains shown)
VH: B6 VH with N30K, F33Y, R50W, W54E, G97N, M98A, S99P
VL: B6 VL with H95Q, I97S, N98H
